In the assay the target is MCR-1 protein. The experiment in a line: indirect ELISA, plate coated with MCR-1 protein at 0.2 ug/mL, purified antibody serially diluted. The conditions noted are these: scale: dilution factor. On the technique in general: ELISA stands for enzyme-linked immunosorbent assay.

B1: mouse anti-MCR-1 protein antibody 1BD9 (antibody, V domains shown)
VH: VKLQQSGPELVKPGASVKVSCKASGYAFTSCNMYWVKQSHGKSLEWIGYFDPYSGDAYYNQKFKDKATLTVDKSSSTAYMHLNSLTSEDSAVYYCASWLQLYYALDYWGQGTSVTVSA
VL: AIQMTQTPSSLSASLGDRVTISCRASQDISNYLNWYQQKPDGTVKLLIYYTSRLHSGVPSRFSGSGSGTDYSLNISNLEQEDFATYFCQQGDMIPDTFGGGTKLEIKR
In turn, B1 registered a titer greater than 1.28e+06.

B2: mouse anti-MCR-1 protein antibody 1BH8 (antibody, V domains shown)
VH: VQLQQSGPELVKPGASVKMSCRASGYTFTNYIMHWVKQKPGQGLDWIGYINPYNDGTKYNEKFKGKATLSSDKSSGTAYMDLSSLTSEDSAVYYCARGPYGNYAMDYWGQGTSVTVSS
VL: DVLMTQTPLSLPVSLGDQASISCRSSQNIVCSYGNPCLEWYLQKPGQSPKLLIYKVSNRFSGVPDRFSGSGSGTDFTLKISRVEAEDLGVYYCFQGSHVPWTFGGGTELEIKR
In turn, B2 displayed a titer greater than 1.28e+06.

The values are drawn from patent publication EP4170021A1.
